In doi:10.1101/2023.11.17.567546 one finds binding data, which are given here for one sequence.

Data set [1] addresses Hfq (UniProt P0A6X3). Kind of data set: lead acetate footprinting.
Data set [2] concerns the target Hfq (UniProt P0A6X3). Kind of data set: EMSA.

Chain of Hfq (P0A6X3 whole entry): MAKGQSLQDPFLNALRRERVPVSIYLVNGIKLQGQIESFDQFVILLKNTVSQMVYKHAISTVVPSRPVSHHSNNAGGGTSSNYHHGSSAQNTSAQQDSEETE

As for “GCGCCAACGUCGCAUCUGGUUCUCAUCAUCGCGUAAUAUUGAUGAAACCUGCGGCAUCCUUCUUCUAUUGUGGAUGCUUUACAAUGAUUAAAAAAGCUUCGCUGCUGACGGCGUGUUCCGUCACGGCAUUUUCCGCUUGGGCACAGGAUACCAGCCCGGAUACUCUCGUCGUUACUGCUAACCGUUUUGAACAGCCGCGCAGCACUGUGCUUGCACCAACCACCGUUGUGACCCGUCAGGAUAU [btuB mRNA -80 to +161]”, the binding result with Hfq [1] and in the data set with Hfq [2] was “binds” each time.
